Reference: US7696171
Read-outs that look alike come from different tables or passages of the source.

Experiments:
FGF receptor (FGFR) [1] = experiment: cell-based or functional assay
FGF receptor (FGFR) [2] = experiment: cell-based or functional assay; remark: listed apart in the source

Row | mitogenic activity (NIH 3T3 fibroblast proliferation, EC50) (fold reduction) (FGF receptor (FGFR) [1]) | mitogenic activity (NIH 3T3 fibroblast proliferation, EC50) (fold reduction) (FGF receptor (FGFR) [2]) | Substance
1 | 2 | 3 | FGF-1 Glu87→Val/Pro134→Val mutant (in the WT* Cys117→Val background) (from UniProt P05230 16-155) (ligand)
2 |  | 1000 | FGF-1 Lys12→Val/Asn95→Val mutant (in the WT* Cys117→Val background) (from UniProt P05230 16-155) (ligand)
